{
  "source": "patent US20110117099A1",
  "biological_target": "type I Collagen (Sigma)",
  "test": "solid phase assay, biotinylated rBSdrF titrated on collagen-coated wells",
  "data": [
    {"substance": "purified recombinant B domain of SdrF (rBSdrF), N-terminal His tag (from UniProt Q9KI14 678-1128)", "values": [
      {"measurement": "concentration at which maximum binding occurs", "value": 20, "unit": "ng/mL"}
    ]}
  ]
}
